Assay results as given in IntAct's records for PubMed 25910212.

B1: Progranulin (Homo sapiens), P28799 (parent)
chain: MWTLVSWVALTAGLVAGTRCPDGQFCPVACCLDPGGASYSCCRPLLDKWPTTLSRHLGGPCQVDAHCSAGHSCIFTVSGTSSCCPFPEAVACGDGHHCCPRGFHCSADGRSCFQRSGNNSVGAIQCPDSQFECPDFSTCCVMVDGSWGCCPMPQASCCEDRVHCCPHGAFCDLVHTRCITPTGTHPLAKKLPAQRTNRAVALSSSVMCPDARSRCPDGSTCCELPSGKYGCCPMPNATCCSDHLHCCPQDTVCDLIQSKCLSKENATTDLLTKLPAHTVGDVKCDMEVSCPDGYTCCRLQSGAWGCCPFTQAVCCEDHIHCCPAGFTCDTQKGTCEQGPHQVPWMEKAPAHLSLPDPQALKRDVPCDNVSSCPSSDTCCQLTSGEWGCCPIPEAVCCSDHQHCCPQGYTCVAEGQCQRGSEIVAGLEKMPARRASLSHPRDIGCDQHTSCPVGQTCCPSLGGSWACCQLPHAVCCEDRQHCCPAGYTCNVKARSCEKEVVSAQPATFLARSPHVGVKDVECGEGHFCHDNQTCCRDNRQGWACCPYRQGVCCADRRHCCPAGFRCAARGTKCLRREAPRWDAPLRDPALRQLL
partner: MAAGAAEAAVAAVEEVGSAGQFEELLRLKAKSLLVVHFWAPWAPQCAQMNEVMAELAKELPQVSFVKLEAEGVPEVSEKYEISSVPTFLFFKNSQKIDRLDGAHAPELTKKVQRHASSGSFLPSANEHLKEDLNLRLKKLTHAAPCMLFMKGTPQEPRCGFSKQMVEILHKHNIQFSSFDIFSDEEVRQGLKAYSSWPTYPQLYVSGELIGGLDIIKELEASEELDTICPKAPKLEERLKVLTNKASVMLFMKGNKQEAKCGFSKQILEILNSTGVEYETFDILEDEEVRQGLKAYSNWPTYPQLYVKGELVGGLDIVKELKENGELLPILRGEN
B2: EF-hand domain-containing protein 1 (Homo sapiens), Q5JVL4 (parent)
chain: MVSNPVHGLPFLPGTSFKDSTKTAFHRSQTLSYRNGYAIVRRPTVGIGGDRLQFNQLSQAELDELASKAPVLTYGQPKQAPPADFIPAHVAFDKKVLKFDAYFQEDVPMSTEEQYRIRQVNIYYYLEDDSMSVIEPVVENSGILQGKLIKRQRLAKNDRGDHYHWKDLNRGINITIYGKTFRVVDCDQFTQVFLESQGIELNPPEKMALDPYTELRKQPLRKYVTPSDFDQLKQFLTFDKQVLRFYAIWDDTDSMYGECRTYIIHYYLMDDTVEIREVHERNDGRDPFPLLMNRQRVPKVLVENAKNFPQCVLEISDQEVLEWYTAKDFIVGKSLTILGRTFFIYDCDPFTRRYYKEKFGITDLPRIDVSKREPPPVKQELPPYNGFGLVEDSAQNCFALIPKAPKKDVIKMLVNDNKVLRYLAVLESPIPEDKDRRFVFSYFLATDMISIFEPPVRNSGIIGGKYLGRTKVVKPYSTVDNPVYYGPSDFFIGAVIEVFGHRFIILDTDEYVLKYMESNAAQYSPEALASIQNHVRKREAPAPEAESKQTEKDPGVQELEALIDTIQKQLKDHSCKDNIREAFQIYDKEASGYVDRDMFFKICESLNVPVDDSLVKELIRMCSHGEGKINYYNFVRAFSN
partner: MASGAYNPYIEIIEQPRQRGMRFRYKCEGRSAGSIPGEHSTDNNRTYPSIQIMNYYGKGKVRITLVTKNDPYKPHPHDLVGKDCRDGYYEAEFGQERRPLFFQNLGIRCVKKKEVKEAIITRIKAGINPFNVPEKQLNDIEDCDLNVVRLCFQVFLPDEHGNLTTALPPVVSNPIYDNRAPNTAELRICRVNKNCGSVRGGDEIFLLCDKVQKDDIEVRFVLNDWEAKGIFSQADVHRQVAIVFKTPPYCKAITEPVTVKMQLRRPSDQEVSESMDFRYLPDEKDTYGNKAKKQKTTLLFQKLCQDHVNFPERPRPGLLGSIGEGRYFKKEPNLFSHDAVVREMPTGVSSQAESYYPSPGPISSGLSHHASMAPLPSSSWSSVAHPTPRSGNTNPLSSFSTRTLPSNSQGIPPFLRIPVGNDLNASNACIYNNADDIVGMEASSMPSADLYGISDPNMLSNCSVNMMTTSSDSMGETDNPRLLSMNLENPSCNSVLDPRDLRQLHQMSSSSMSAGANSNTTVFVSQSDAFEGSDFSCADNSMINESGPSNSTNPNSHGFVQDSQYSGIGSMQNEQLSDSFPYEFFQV
B3: Tyrosine aminotransferase (Homo sapiens), P17735 (parent)
chain: MDPYMIQMSSKGNLPSILDVHVNVGGRSSVPGKMKGRKARWSVRPSDMAKKTFNPIRAIVDNMKVKPNPNKTMISLSIGDPTVFGNLPTDPEVTQAMKDALDSGKYNGYAPSIGFLSSREEIASYYHCPEAPLEAKDVILTSGCSQAIDLCLAVLANPGQNILVPRPGFSLYKTLAESMGIEVKLYNLLPEKSWEIDLKQLEYLIDEKTACLIVNNPSNPCGSVFSKRHLQKILAVAARQCVPILADEIYGDMVFSDCKYEPLATLSTDVPILSCGGLAKRWLVPGWRLGWILIHDRRDIFGNEIRDGLVKLSQRILGPCTIVQGALKSILCRTPGEFYHNTLSFLKSNADLCYGALAAIPGLRPVRPSGAMYLMVGIEMEHFPEFENDVEFTERLVAEQSVHCLPATCFEYPNFIRVVITVPEVMMLEACSRIQEFCEQHYHCAEGSQEECDK

Variants of: B1
Details: with glrx3_human GLRX3, O76003

Row | effect of a mutation on the interaction | Variant
1 | disrupting interaction strength | R432C
2 | disrupting interaction strength | A9D
3 | with no effect | P248L

Variants of: B2
Details: with REL

Row | effect of a mutation on the interaction | Variant
4 | disrupting interaction strength | T508R
5 | with no effect | M448T
6 | disrupting interaction strength | A394S

Second part, the variant before the results:

Row | Variant | effect of a mutation on the interaction
7 | R221H | disrupting interaction strength
8 | R159W | with no effect
9 | P77T | disrupting interaction strength

Variants of: B3
Details: with UBE3A

Row | effect of a mutation on the interaction | Variant
10 | disrupting interaction strength | R433W

Variants of: B3
Details: with glna_human GLUL

Row | effect of a mutation on the interaction | Variant
11 | disrupting interaction strength | R433W
